Here are results for six compounds from ChEMBL document CHEMBL1142227, “Structural basis for the high all-trans-retinaldehyde reductase activity of the tumor marker AKR1B10” (Proc Natl Acad Sci U S A, 2007).

The test system of data set [1] is CC1=C(/C=C/C(C)=C/C=C/C(C)=C/C=O)C(C)(C)CCC1. Nature of the data set: (§1) Activity of human AKR1B1 by BSA/HPLC method.
Data set [2] concerns CC1=C(/C=C/C(C)=C\C=C\C(C)=C\C=O)C(C)(C)CCC1. The description is as §1.
The test system of data set [3] is O=CC(O)CO. The data set is described as §1.
The subject of data set [4] is CC1=C(/C=C/C(C)=C/C=C/C(C)=C/C=O)C(C)(C)CCC1. Nature of the data set: (§2) Ratio of Kcat to Km for human AKR1B1.
In data set [5] the test system is CC1=C(/C=C/C(C)=C\C=C\C(C)=C\C=O)C(C)(C)CCC1. The description is as §2.
Data set [6] has as its system O=CC(O)CO. Described as §2.
Data set [7] concerns CC1=C(/C=C/C(C)=C/C=C/C(C)=C/C=O)C(C)(C)CCC1. Nature of the data set: (§3) Activity of human AKR1B1 by Tween 80 / spectrophotometer method.
For data set [8], the system named is CC1=C(/C=C/C(C)=C/C=C/C(C)=C/C=O)C(C)(C)C[C@@H](O)C1. Described as §3.
The subject of data set [9] is CC1=C(/C=C/C(C)=C/C=C/C(C)=C/C=O)C(C)(C)CCC1. Nature of the data set: (§4) Activity of human AKR1B10 K125L/V301L mutant by BSA/HPLC method.
For data set [10], the system named is O=CC(O)CO. Described as §4.
In data set [11] the test system is CC1=C(/C=C/C(C)=C/C=C/C(C)=C/C=O)C(C)(C)CCC1. The data set can be described thus: (§5) Ratio of Kcat to Km for human AKR1B10 K125L/V301L mutant.
Data set [12] concerns O=CC(O)CO. The data set is described as §5.
Data set [13] deals with CC1=C(/C=C/C(C)=C/C=C/C(C)=C/C=O)C(C)(C)CCC1. Nature of the data set: (§6) Activity of human wild type AKR1B10 by BSA/HPLC method.
Data set [14] deals with CC1=C(/C=C/C(C)=C\C=C\C(C)=C\C=O)C(C)(C)CCC1. The description is as §6.
Data set [15] deals with O=CC(O)CO. Described as §6.
In data set [16] the test system is CC1=C(/C=C/C(C)=C/C=C/C(C)=C/C=O)C(C)(C)CCC1. Nature of the data set: (§7) Ratio of Kcat to Km for human wild type AKR1B10.
Data set [17] concerns CC1=C(/C=C/C(C)=C\C=C\C(C)=C\C=O)C(C)(C)CCC1. Described as §7.
The subject of data set [18] is O=CC(O)CO. Described as §7.
In data set [19] the test system is CC1=C(/C=C/C(C)=C/C=C/C(C)=C/C=O)C(C)(C)CCC1. Nature of the data set: (§8) Activity of human wild type AKR1B10 by Tween 80 / spectrophotometer method.
Data set [20] concerns CC1=C(/C=C/C(C)=C/C=C/C(C)=C/C=O)C(C)(C)C[C@@H](O)C1. Described as §8.
In data set [21] the test system is CC1=C(/C=C/C(C)=C/C=C/C(C)=C/C=O)C(C)(C)CCC1. The data set can be described thus: (§9) Activity of human AKR1B10 K125L mutant by BSA/HPLC method.
The subject of data set [22] is CC1=C(/C=C/C(C)=C\C=C\C(C)=C\C=O)C(C)(C)CCC1. The data set is described as §9.
Data set [23] concerns O=CC(O)CO. The description is as §9.
The test system of data set [24] is CC1=C(/C=C/C(C)=C/C=C/C(C)=C/C=O)C(C)(C)CCC1. Nature of the data set: (§10) Ratio of Kcat to Km for human AKR1B10 K125L mutant.
Data set [25] concerns CC1=C(/C=C/C(C)=C\C=C\C(C)=C\C=O)C(C)(C)CCC1. The description is as §10.
Data set [26] relates to O=CC(O)CO. The data set is described as §10.
The subject of data set [27] is CC1=C(/C=C/C(C)=C/C=C/C(C)=C/C=O)C(C)(C)CCC1. Nature of the data set: (§11) Activity of human AKR1B10 K125L mutant by Tween 80 / spectrophotometer method.
In data set [28] the test system is CC1=C(/C=C/C(C)=C/C=C/C(C)=C/C=O)C(C)(C)C[C@@H](O)C1. Described as §11.
Data set [29] deals with Aldo-keto reductase family 1 member B10 (Homo sapiens) (UniProt O60218). Nature of the data set: Inhibition of retinaldehyde reductase activity of human AKR1B10 expressed in COS7 cells at 1 uM relative to control. Type of data set: cell-based. The arrangement: scale not given: the % may be the effect or the level left. As to conditions: COS-7.
Sequence of Aldo-keto reductase family 1 member B10 (Homo sapiens) (O60218 whole entry, looked up): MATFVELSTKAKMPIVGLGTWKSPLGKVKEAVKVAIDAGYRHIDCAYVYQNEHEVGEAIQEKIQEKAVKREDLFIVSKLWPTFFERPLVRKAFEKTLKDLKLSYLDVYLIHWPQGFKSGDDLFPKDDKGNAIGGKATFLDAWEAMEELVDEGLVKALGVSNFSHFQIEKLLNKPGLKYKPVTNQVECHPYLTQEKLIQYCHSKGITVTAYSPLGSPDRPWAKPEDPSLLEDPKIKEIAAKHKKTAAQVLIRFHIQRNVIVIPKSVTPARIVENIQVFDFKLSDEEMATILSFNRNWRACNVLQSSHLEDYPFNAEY
The test system of data set [30] is CC1=C(/C=C/C(C)=C/C=C/C(C)=C/C=O)C(C)(C)CCC1. The data set can be described thus: (§12) Activity of human AKR1B10 V301L mutant by BSA/HPLC method.
Data set [31] relates to CC1=C(/C=C/C(C)=C\C=C\C(C)=C\C=O)C(C)(C)CCC1. Described as §12.
For data set [32], the system named is O=CC(O)CO. The description is as §12.
Data set [33] relates to CC1=C(/C=C/C(C)=C/C=C/C(C)=C/C=O)C(C)(C)CCC1. Nature of the data set: (§13) Ratio of Kcat to Km for human AKR1B10 V301L mutant.
The test system of data set [34] is CC1=C(/C=C/C(C)=C\C=C\C(C)=C\C=O)C(C)(C)CCC1. The data set is described as §13.
Data set [35] relates to O=CC(O)CO. The description is as §13.

As a reminder, the Km is the concentration of substrate that gives half-maximal velocity. The kcat is the maximal rate divided by the concentration of active sites. For orientation: kcat/Km means the second-order rate constant that governs catalysis at low substrate concentration.

Sequence of Aldo-keto reductase family 1 member B10 (Homo sapiens), O60218 K125L,V301L (O60218 whole entry K125L/V301L): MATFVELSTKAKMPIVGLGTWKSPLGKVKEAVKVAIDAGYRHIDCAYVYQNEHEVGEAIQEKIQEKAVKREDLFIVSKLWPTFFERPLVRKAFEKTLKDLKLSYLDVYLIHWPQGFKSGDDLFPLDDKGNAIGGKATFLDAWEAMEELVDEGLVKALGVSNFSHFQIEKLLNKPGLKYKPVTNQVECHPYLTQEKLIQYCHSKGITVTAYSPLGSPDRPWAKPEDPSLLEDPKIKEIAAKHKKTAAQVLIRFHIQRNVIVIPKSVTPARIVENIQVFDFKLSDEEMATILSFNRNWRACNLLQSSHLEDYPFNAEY
Sequence of Aldo-keto reductase family 1 member B10 (Homo sapiens), O60218 V301L (O60218 whole entry V301L): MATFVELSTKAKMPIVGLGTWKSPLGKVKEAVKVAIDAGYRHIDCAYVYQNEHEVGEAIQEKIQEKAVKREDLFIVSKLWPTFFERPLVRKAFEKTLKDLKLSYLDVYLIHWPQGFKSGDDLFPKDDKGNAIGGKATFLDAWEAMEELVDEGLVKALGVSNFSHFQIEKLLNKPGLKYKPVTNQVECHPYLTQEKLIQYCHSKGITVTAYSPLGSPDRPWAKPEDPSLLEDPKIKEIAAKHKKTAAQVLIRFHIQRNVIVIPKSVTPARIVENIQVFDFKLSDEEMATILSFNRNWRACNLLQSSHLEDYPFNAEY
Sequence of Aldo-keto reductase family 1 member B10 (Homo sapiens), O60218 (O60218 whole entry): as the sequence (O60218 whole entry, looked up) above
Sequence of Aldo-keto reductase family 1 member B10 (Homo sapiens), O60218 K125L (O60218 whole entry K125L): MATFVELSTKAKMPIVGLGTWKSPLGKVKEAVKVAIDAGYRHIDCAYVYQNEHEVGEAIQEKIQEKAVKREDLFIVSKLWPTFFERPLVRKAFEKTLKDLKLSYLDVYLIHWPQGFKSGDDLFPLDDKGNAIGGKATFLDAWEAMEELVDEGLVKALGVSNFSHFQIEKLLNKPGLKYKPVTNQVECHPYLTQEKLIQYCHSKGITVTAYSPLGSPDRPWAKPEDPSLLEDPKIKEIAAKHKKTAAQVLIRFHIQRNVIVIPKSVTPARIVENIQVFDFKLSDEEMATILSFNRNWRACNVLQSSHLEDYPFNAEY

As to “Aldo-keto reductase family 1 member B1 (Homo sapiens) (from UniProt P15121)”, the Michaelis constant (Km) in [1] was determined as 1.1 µM; in data set [2] it was 0.4 µM; with O=CC(O)CO [3] it was 50 µM. Also, the kcat in data set [1] came to 0.00583 s⁻¹; in [2] it was 0.0117 s⁻¹; in the data set with O=CC(O)CO [3], 0.517 s⁻¹; in data set [7] it was 0.00617 s⁻¹; in data set [8], 0.0967 s⁻¹. The kcat/Km in [4] was 5330 M⁻¹ s⁻¹; in data set [5], 25000 M⁻¹ s⁻¹; in the data set with O=CC(O)CO [6], 11000 M⁻¹ s⁻¹.
For “Aldo-keto reductase family 1 member B10 (Homo sapiens), O60218 K125L,V301L”, the Michaelis-Menten constant (Km) is 1 µM in data set [9] and 7300 µM in the data set with O=CC(O)CO [10]. In addition, the kcat in [9] was determined as 0.0583 s⁻¹; with O=CC(O)CO [10], 0.59 s⁻¹. Further, the values for the specificity constant (kcat/Km) (in [11]; in the data set on O=CC(O)CO [12]) were 58300 M⁻¹ s⁻¹ and 81.7 M⁻¹ s⁻¹, respectively.
In the case of “Aldo-keto reductase family 1 member B10 (Homo sapiens), O60218”, the Km in [13] is 0.6 µM; in [14] it was 0.7 µM; with O=CC(O)CO [15], 6000 µM. Besides, the kcat in [13] was determined as 0.45 s⁻¹; in data set [14], 0.015 s⁻¹; with O=CC(O)CO [15], 0.583 s⁻¹; in [19] it was 0.297 s⁻¹; in [20], 0.288 s⁻¹. The kcat/Km in data set [16] was 750000 M⁻¹ s⁻¹; in [17] it was 21700 M⁻¹ s⁻¹; in the data set on O=CC(O)CO [18], 100 M⁻¹ s⁻¹.
Regarding “Aldo-keto reductase family 1 member B10 (Homo sapiens), O60218 K125L”, the Km in [21] stood at 0.15 µM; in data set [22], 0.7 µM; with O=CC(O)CO [23], 5200 µM. For the same compound, the turnover number (kcat) in [21] worked out at 0.0333 s⁻¹; in [22] it was 0.015 s⁻¹; in the data set with O=CC(O)CO [23] it was 0.593 s⁻¹; in [27], 0.0733 s⁻¹; in data set [28] it was 0.308 s⁻¹. The specificity constant (kcat/Km) came out at 218000 M⁻¹ s⁻¹ in [24], 21700 M⁻¹ s⁻¹ in data set [25] and 117 M⁻¹ s⁻¹ in the data set on O=CC(O)CO [26].
For the compound `COc1ccc2c(C(=S)N(C)CC(=O)O)cccc2c1C(F)(F)F`, the Activity in data set [29] amounted to 50%.
Regarding “Aldo-keto reductase family 1 member B10 (Homo sapiens), O60218 V301L”, the Michaelis-Menten constant (Km) was found to be 0.6 µM in data set [30], 0.3 µM in [31] and 6000 µM in the data set with O=CC(O)CO [32]. Moreover, the kcat is 0.128 s⁻¹ in [30], 0.01 s⁻¹ in [31] and 0.683 s⁻¹ in the data set with O=CC(O)CO [32]. The specificity constant (kcat/Km) in data set [33] was 212000 M⁻¹ s⁻¹; in [34], 30000 M⁻¹ s⁻¹; with O=CC(O)CO [35] it was 117 M⁻¹ s⁻¹.
